Consider 1 variant from IntAct's records for PubMed 20190753.

To fix the notation:
B1: Vacuolar protein sorting-associated protein 33B (Homo sapiens), Q9H267 (parent)
chain: MAFPHRPDAPELPDFSMLKRLARDQLIYLLEQLPGKKDLFIEADLMSPLDRIANVSILKQHEVDKLYKVENKPALSSNEQLCFLVRPRIKNMRYIASLVNADKLAGRTRKYKVIFSPQKFYACEMVLEEEGIYGDVSCDEWAFSLLPLDVDLLSMELPEFFRDYFLEGDQRWINTVAQALHLLSTLYGPFPNCYGIGRCAKMAYELWRNLEEEEDGETKGRRPEIGHIFLLDRDVDFVTALCSQVVYEGLVDDTFRIKCGSVDFGPEVTSSDKSLKVLLNAEDKVFNEIRNEHFSNVFGFLSQKARNLQAQYDRRRGMDIKQMKNFVSQELKGLKQEHRLLSLHIGACESIMKKKTKQDFQELIKTEHALLEGFNIRESTSYIEEHIDRQVSPIESLRLMCLLSITENGLIPKDYRSLKTQYLQSYGPEHLLTFSNLRRAGLLTEQAPGDTLTAVESKVSKLVTDKAAGKITDAFSSLAKRSNFRAISKKLNLIPRVDGEYDLKVPRDMAYVFGGAYVPLSCRIIEQVLERRSWQGLDEVVRLLNCSDFAFTDMTKEDKASSESLRLILVVFLGGCTFSEISALRFLGREKGYRFIFLTTAVTNSARLMEAMSEVKA
partner: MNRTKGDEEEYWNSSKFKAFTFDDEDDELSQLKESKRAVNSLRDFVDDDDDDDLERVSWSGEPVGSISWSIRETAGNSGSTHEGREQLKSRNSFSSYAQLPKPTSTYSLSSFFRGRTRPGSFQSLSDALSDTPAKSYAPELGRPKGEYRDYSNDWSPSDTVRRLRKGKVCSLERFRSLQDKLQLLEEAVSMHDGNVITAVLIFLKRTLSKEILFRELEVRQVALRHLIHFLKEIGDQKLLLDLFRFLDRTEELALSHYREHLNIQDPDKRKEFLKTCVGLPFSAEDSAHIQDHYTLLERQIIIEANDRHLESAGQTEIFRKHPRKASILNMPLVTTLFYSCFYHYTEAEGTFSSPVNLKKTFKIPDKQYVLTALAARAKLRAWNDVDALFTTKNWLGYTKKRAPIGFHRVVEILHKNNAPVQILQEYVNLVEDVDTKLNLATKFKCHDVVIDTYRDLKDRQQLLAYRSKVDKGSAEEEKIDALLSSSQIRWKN

In the assay the parent is B1. Particulars: with spe39_human VIPAS39, Q9H9C1.
Take L30P: the “effect of a mutation on the interaction” value is listed as “decreasing interaction”.
